What was measured:
[1] = melting temperature; UV melt of duplexes; conditions: strand 2 µM
[2] = melting temperature; melt of duplexes; conditions: sodium 0.0675 M; strand 1 µM

Substance	Tm [2] [°C]	also measured
CAGTGGGCTCCTGGGCGTGCTGGTC+GACCAGCACGCCCAGGAGCCCACTG (((((((((((((((((((((((((+)))))))))))))))))))))))))		Tm ([1]; sodium 0.07 M): 72 °C; Tm ([1]; sodium 0.12 M): 75.6 °C; Tm ([1]; sodium 0.22 M): 79.2 °C; Tm ([1]; sodium 0.62 M): 82.6 °C; Tm ([1]; sodium 1.02 M): 83.4 °C
CGACGTGCTCCATGTGCTG+CAGCACATCACGCACGTCG ((((((((...((((((((+))))))))...))))))))	47	
CGACGTGCCTGATGTGCTG+CAGCACATCCCGCACGTCG ((((((((..(((((((((+)))))))))..))))))))	53	
CGACGTGCATGATGTGCTG+CAGCACATCAAGCACGTCG ((((((((.((((((((((+)))))))))).))))))))	56.5	
CGACGTGCTGTATGTGCTG+CAGCACATGACGCACGTCG ((((((((...((((((((+))))))))...))))))))	47.9	
CGACGTGCGGAATGTGCTG+CAGCACATTCCGCACGTCG (((((((((((((((((((+)))))))))))))))))))	66.6	
CGACGTGCAGTATGTGCTG+CAGCACATACAGCACGTCG ((((((((.((((((((((+)))))))))).))))))))	57.4	
CGACGTGCGATATGTGCTG+CAGCACATCCTGCACGTCG ((((((((...((((((((+))))))))...))))))))	49.5	
CGACGTGCCGTATGTGCTG+CAGCACATGCTGCACGTCG ((((((((.(.((((((((+)))))))).).))))))))	51.2	
CGACGTGCTCCATGTGCTG+CAGCACATGACGCACGTCG ((((((((..(((((((((+)))))))))..))))))))	49.8	
CGACGTGCCTTATGTGCTG+CAGCACATGTCGCACGTCG ((((((((...((((((((+))))))))...))))))))	47.8	
CGACGTGCATAATGTGCTG+CAGCACATACGGCACGTCG ((((((((...((((((((+))))))))...))))))))	47.3	
CGACGTGCTACATGTGCTG+CAGCACATGCTGCACGTCG ((((((((..(((((((((+)))))))))..))))))))	52.8	
CGACGTGCATCATGTGCTG+CAGCACATGGAGCACGTCG ((((((((..(((((((((+)))))))))..))))))))	55.5	
CGACGTGCAGTATGTGCTG+CAGCACATCTCGCACGTCG ((((((((...((((((((+))))))))...))))))))	50.1	
CGACGTGCAGCATGTGCTG+CAGCACATACAGCACGTCG ((((((((.(.((((((((+)))))))).).))))))))	48.3	
CGACGTGCATAATGTGCTG+CAGCACATGCTGCACGTCG (((((((((..((((((((+))))))))..)))))))))	50	

Substance	Tm [2] [°C]	also measured
CGACGTGCGAGATGTGCTG+CAGCACATCAAGCACGTCG ((((((((..(((((((((+)))))))))..))))))))	58.6	
CGACGTGCTTCATGTGCTG+CAGCACATCCGGCACGTCG ((((((((...((((((((+))))))))...))))))))	47.8	
CGACGTGCCCGATGTGCTG+CAGCACATAATGCACGTCG ((((((((...((((((((+))))))))...))))))))	48.1	
CGACGTGCAACATGTGCTG+CAGCACATCGTGCACGTCG (((((((((..((((((((+))))))))..)))))))))	47.9	
CGACGTGCCTGATGTGCTG+CAGCACATTATGCACGTCG ((((((((.(.((((((((+)))))))).).))))))))	50.2	
CGACGTGCTGTATGTGCTG+CAGCACATGTGGCACGTCG ((((((((...((((((((+))))))))...))))))))	51	
CGACGTGCTCGATGTGCTG+CAGCACATTTCGCACGTCG ((((((((...((((((((+))))))))...))))))))	48.1	
CGACGTGCAGTATGTGCTG+CAGCACATTTCGCACGTCG ((((((((...((((((((+))))))))...))))))))	49.7	
CGACGTGCCATATGTGCTG+CAGCACATGAGGCACGTCG (((((((((..((((((((+))))))))..)))))))))	56.2	
CGACGTGCTTGATGTGCTG+CAGCACATATGGCACGTCG ((((((((...((((((((+))))))))...))))))))	51	
CGACGTGCCGGATGTGCTG+CAGCACATTAGGCACGTCG (((((((((..((((((((+))))))))..)))))))))	57	
CGACGTGCATTATGTGCTG+CAGCACATATTGCACGTCG (((((((((.(((((((((+))))))))).)))))))))	54.5	
CGACGTGCGAGATGTGCTG+CAGCACATCCTGCACGTCG ((((((((..(((((((((+)))))))))..))))))))	55.6	
CGACGTGCATCATGTGCTG+CAGCACATTCCGCACGTCG ((((((((...((((((((+))))))))...))))))))	46.6	
CGACGTGCCGAATGTGCTG+CAGCACATACCGCACGTCG ((((((((.(.((((((((+)))))))).).))))))))	49.5	
CGACGTGCAGAATGTGCTG+CAGCACATATTGCACGTCG (((((((((..((((((((+))))))))..)))))))))	50.5	

— the array DNA melting data of Ke et al.
